By stoichiometry N is commonly meant the number of molecules, sites or subunits per partner or assembly.

The target of this experiment is putative N-acetyltransferase from S. aureus subsp. aureus Mu50 (SaGNAT) (Staphylococcus aureus subsp. aureus Mu50). The experiment is described as follows: SEC; Superdex 200, 50 mM Tris pH 8.0, 125 mM NaCl; elution compared with theoretical elution volumes for monomer, dimer and trimer. Background: SEC sorts molecules by how far they enter the pores of the column.

Regarding “putative N-acetyltransferase from S. aureus subsp. aureus Mu50 (SaGNAT) (enzyme)”, the stoichiometry N came out at 2.

Values taken from publication PMC4131848.
